Source: article PMC10303687 (Protein Science : A Publication of the Protein Society, 2023)
Ends that are not written are not given here.

T1: MDM2_(D. rerio) SWIB domain (zebra fish (Danio rerio))
T1 construct: four residues left at the N-terminus after PreScission digestion, GPGS or GPMG; which of the two for this variant is in Excel File 1 in Data S1; MDM2, zebra fish, SWIB domain; Construct limits are in Excel File 1 in Data S1; also called zebra fish MDM2; source: E. coli BL21 (DE3) or BL21 (DE3) pLys, purified (Ni Sepharose or glutathione agarose, PreScission cleavage, SEC); not shown: …
T1 sequence (O42354 whole entry, looked up): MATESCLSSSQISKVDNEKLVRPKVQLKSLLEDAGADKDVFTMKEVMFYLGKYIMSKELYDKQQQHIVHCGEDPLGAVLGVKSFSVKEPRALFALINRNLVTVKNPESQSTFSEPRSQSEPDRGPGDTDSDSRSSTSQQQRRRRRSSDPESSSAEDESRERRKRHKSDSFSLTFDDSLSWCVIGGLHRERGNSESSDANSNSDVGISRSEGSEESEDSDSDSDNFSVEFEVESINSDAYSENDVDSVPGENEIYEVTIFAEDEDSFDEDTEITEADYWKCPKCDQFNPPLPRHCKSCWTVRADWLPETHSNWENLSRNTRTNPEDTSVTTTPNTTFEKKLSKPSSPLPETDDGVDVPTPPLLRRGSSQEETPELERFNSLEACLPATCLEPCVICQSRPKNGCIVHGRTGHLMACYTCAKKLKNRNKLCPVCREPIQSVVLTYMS


Columns and labels:
Conditions in all cases: both partners purified
[1] = target: MDM2_(Reptiles/Mammals)^AltAll; experiment: stopped-flow fluorescence kinetics; 10°C, 20 mM sodium phosphate pH 7.4, 150 mM NaCl, 1 mM TCEP; Trp23 emission; MDM2 constant at 0.5–2 μM, p53TAD varied 1–10 μM for k on; k off from displacement of the 1 μM:1 μM complex by 10–20 μM dansylated human p53TAD peptide; K D = k off/k on
[2] = target: T2, MDM2_(H. sapiens) SWIB domain (human (Homo sapiens)); experiment: as above
T2 construct: four residues left at the N-terminus after PreScission digestion, GPGS or GPMG; which of the two for this variant is in Excel File 1 in Data S1; MDM2, human, SWIB domain; the limits of the human construct itself are in Excel File 1 in Data S1; also called human MDM2; MDM2_(Human); source: E. coli BL21 (DE3) or BL21 (DE3) pLys, purified (Ni Sepharose or glutathione agarose, PreScission cleavage, …)

[3] = target: T1, MDM2_(D. rerio) SWIB domain; experiment: as above
[4] = target: MDM2_(H. sapiens) SWIB domain (human (Homo sapiens)); experiment: as above
[5] = target: MDM2_(Fishes/Tetrapods)^ML; experiment: as above
[6] = target: T3, p53TAD_(G. gallus)^14–26 (chicken (Gallus gallus), acetylated); experiment: as above
T3 construct: numbers count on: human p53 by alignment; also called chicken p53TAD; source: synthetic peptide, bought (Ontores Biotechnology, GL Biochem Shanghai Ltd or GeneCust)

[7] = target: T2, MDM2_(H. sapiens) SWIB domain; experiment: fluorescence polarisation; displacement: FITC-labeled human p53TAD 15–26 (6 or 10 nM) and MDM2 constant, dilution series of unlabeled peptide; K D calculated from IC50; room temperature, same buffer as the kinetics
[8] = target: MDM2_(Fishes/Tetrapods)^AltAll; experiment: stopped-flow fluorescence kinetics; 10°C, 20 mM sodium phosphate pH 7.4, 150 mM NaCl, 1 mM TCEP; Trp23 emission; MDM2 constant at 0.5–2 μM, p53TAD varied 1–10 μM for k on; k off from displacement of the 1 μM:1 μM complex by 10–20 μM dansylated human p53TAD peptide; K D = k off/k on
[9] = target: MDM2_(Reptiles/Mammals)^ML; experiment: as above
[10] = target: MDM2_(L. camtschaticum) SWIB domain (arctic lamprey (Lethenteron …)); experiment: fluorescence polarisation; displacement: FITC-labeled human p53TAD 15–26 (6 or 10 nM) and MDM2 constant, dilution series of unlabeled peptide; K D calculated from IC50; room temperature, same buffer as the kinetics
Sequence of MDM2_(L. camtschaticum) SWIB domain (arctic lamprey (Lethenteron …)) (chain, as listed by the source): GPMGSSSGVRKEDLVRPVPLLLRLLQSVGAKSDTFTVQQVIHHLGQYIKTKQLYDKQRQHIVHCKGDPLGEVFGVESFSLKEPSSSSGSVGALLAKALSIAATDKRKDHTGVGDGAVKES

Row | Binder | Kd [2] [nM] | Kd [5] [nM] | also measured
1 | SQETFSDLWNML (not fully specified (N-terminus); also: acetylated, site not given here) [p53TAD_(Reptiles/Mammals)^AltAll] | 9.5 |  | Kd [1]: 200 nM
2 | DSQETFAELWEKN (not fully specified (N-terminus); also: acetylated, site not given here) [p53TAD_(D. rerio)^insertT18] |  |  | Kd [3]: 2300 nM; Kd [4]: 4900 nM
3 | SQETFSDLWNML (not fully specified (N-terminus); also: acetylated, site not given here) [p53TAD_(Fishes/Tetrapods)^ML] | 8 | 145 | Kd [3]: 93 nM
4 | MDM2_(G. gallus) SWIB domain (domain or fragment) SPVSASEQEALVKPKPLLLKLLKLAGAEKDTFTMKEVIFYLGQYIMSKQLYDEKEQHIVHCANDLLGDLFGVTSFSVKEHRRIYSMISRNLIAINQQDSTLAVPPEDDA |  |  | Kd [6]: 90 nM
5 | SQETFNHLWNTL (not fully specified (N-terminus); also: acetylated, site not given here) [p53TAD_(Bilateria)^ML] | 600 | 2100 | 
6 | SQDTFSDLWNQL (not fully specified (N-terminus); also: acetylated, site not given here) [p53TAD1R^AltAll] | 24 | 370 | 
7 | SQETFDFLWKSL (not fully specified (N-terminus); also: acetylated, site not given here) [p53TAD_(Bilateria)^AltAll] | 170 | 650 | 
8 | Ac-NDVELAELPWAPEDVI [p53TAD_(I. scapularis)] |  |  | Kd [7]: 400000 nM
9 | SQESFSDLWNLL (not fully specified (N-terminus); also: acetylated, site not given here) [p53TAD_(Fishes/Tetrapods)^AltAll] | 19 |  | Kd [8]: 98 nM
10 | SQETFNHLWNML (not fully specified (N-terminus); also: acetylated, site not given here) [p53TAD1R^ML] | 82 | 660 | 
11 | SQETFSDLWNLL (not fully specified (N-terminus); also: acetylated, site not given here) [p53TAD_(Reptiles/Mammals)^ML] | 8 |  | Kd [9]: 120 nM
12 | CVDDFDRVWQGGV (not fully specified (N-terminus); also: acetylated, site not given here) [p53TAD_(L. camtschaticum)] |  |  | Kd [10]: 250000 nM
